From patent US20180049457A1, “ENZYMATIC SYNTHESIS OF SOLUBLE GLUCAN FIBER” (E I DU PONT DE NEMOURS AND COMPANY, priority 2014, published 2018)

Experiment: GTF activity of strains (PAHBAH assay)
Assay type: biochemical
Conditions: enzyme expressed in B. subtilis host
Procedure: GTF activity of the strains was analyzed by PAHBAH assay in three separate experiments. Due to minor variations between the expeirments, Table 2 lists the activity of the truncated enzymes in the B. subtilis host along with the experiment in which the activity was measured. Most of the T1, T2, and T6 truncations decreased the activity of the enzymes, whereas the T4 and T5 C-terminal truncations retained similar activity relative to the respective N terminal-only truncations (NT). […] To identify specific amino acid residues within the catalytic domain that may be involved in producing the soluble α-glucan fiber, we analyzed the crystal structures (PDB Identifiers: 3AIB, 3AIC, and 3HZ3) of the catalytic domains of three glucosyltransferases to identify residues within 8 Angstroms of the bound ligand. 57 residues met that criterion. A motif was generated based on the corresponding 57 amino acids in GTF0459 and each of the identified homologs. The motif was then used to generate a consensus sequence to capture the variability in the catalytic domains of GTF0459 and the identified homologs. The consensus sequence is provided as SEQ ID NO: 153.

Molecule | GTF activity of strains: Acitivity (Experiment Number 1) [U/mL] | GTF activity of strains: Acitivity (Experiment Number 2) [U/mL] | GTF activity of strains: Acitivity (Experiment Number 3) [U/mL]
GTF0974NT: N terminal-only truncated GTF0974 from Streptococcus salivarius 57.I, SEQ ID NO: 110, strain SG1290 (protein, Streptococcus salivarius 57.I) INGKQYYVNSDGSVRKNFVFEQDGKSYYFDAETGALATKSQDEFSTEPIKATVDFSSGNQLYKNDDKSLDQLDTFITADAWYRPKSILKDGKTWTASTEADKRPLLMVWWPDKSTQVNYLNYMQNQGLGAGSFSTNSSQESLDQAAKAVQTKIEERIAREGNTNWLRTSIDQFIKTQPGWNSSTENSSYDHLQGGQLLFNNSKGDTGNRTSHANSDYRLLNRTPTNQTGTRKYFKDNSIGGLEFLLANDIDNSNPAVQAEQLNWLHFMMNIGSIMANDPTANFDGLRVDALDNVDADLLQIASDYFKAAYGVDKSEANAIKHLSYLEAWSANDPYYNKDTKGAQLPIDNALRNALTNLLMRDKNTRMQLGDMTAFINSSLNPRGANDKNGERMANYIFTRAHDTEAQTIIQRIIRDRINPNLFGYNFTRDEIKKAFEIYNEDIDKAHKTYASYNLPSVYALMLTNKDSVTRVYYGDLYREDGHYMAKKTPYFDAIDTLLRARIKYVAGGQDMEVKKVGNDGLLTSVRYGKGANNRTDLGTSETRTQGMGVIMTNNYDFRLGSNETVTMNMGRAHRNQLYRPLLLTTKDGIATYLNDSDVPKKLLKRTDWNGNLTFNANDVFGVENVQVSGYLGVWVPYGAKANQDARTQPSNRANSDGQVYKSSAALDSQVMYEAFSNFQAFADDQPELYMNRVLAKNTDLLKAWGITSVGLPPQYVSSKDGTFLDSTIDNGYAFDDRYDMALSQNNKYGSLEDLLNVLRALHKDGIQAIADWVPDQIYNLPGKEVVNATRVNGYGNHQVGYQIIDQAYVANTRTDGTDYQGKYGGAFLDELKAKYPSIFNRVQISNGKQLPTNEKITKWSAKYFNGTNILGRGINYVLRDDKTNQYFNTSANSQLLPTPLRDTGAITSTQVFQRRGQDVYFLRDNQAVKNEFVQDGNGNWYYFGGDGKMTKGAQNINNKDYYFFDNGIQLRNALRRASNGYTYYYGLDGAMVKNAFVDFDDKHKQVRAFTTQGTMVVGNLHWSGHHFYFDRETGIQAKDRVVRTDDGKLHYYVAETGDMGRNVFATDSSTGKRYYFDADGNTVTGSRVIDGKTYYFNQDGSVGTAYSNRADSIIFENGKARYITPAGEIGRSIFVYNPETKAWNYFDKEGNRVTGRQYIDGHLYYFKEDGSQAKGEIIEENGVKYYYEPESGILASGRYLQVGDDQWMYFKQDGSLAIGQVRADHGYLKYFDKNGIQVKGKTVVEDGKTYYYDAHSGALVTSSFAEIAPNQWSYFNTDGQALKGKWTINGKEYYFDENGIQYKGKAIKVGSRYKYYDENDGQPVTNRFAQIEPNVWAYFGADGYAVTGEQVINGQHLYFDQSGRQVKGAYVTVNGQRRYYDANTGEYVPGR | 43.7 | 53 | 36.4
GTF0974T5: T5 C-terminal truncation of GTF0974 glucosyltransferase, SEQ ID NO: 118, strain SG1317 (protein, T5 C-terminal truncation of GTF0974) INGKQYYVNSDGSVRKNFVFEQDGKSYYFDAETGALATKSQDEFSTEPIKATVDFSSGNQLYKNDDKSLDQLDTFITADAWYRPKSILKDGKTWTASTEADKRPLLMVWWPDKSTQVNYLNYMQNQGLGAGSFSTNSSQESLDQAAKAVQTKIEERIAREGNTNWLRTSIDQFIKTQPGWNSSTENSSYDHLQGGQLLFNNSKGDTGNRTSHANSDYRLLNRTPTNQTGTRKYFKDNSIGGLEFLLANDIDNSNPAVQAEQLNWLHFMMNIGSIMANDPTANFDGLRVDALDNVDADLLQIASDYFKAAYGVDKSEANAIKHLSYLEAWSANDPYYNKDTKGAQLPIDNALRNALTNLLMRDKNTRMQLGDMTAFINSSLNPRGANDKNGERMANYIFTRAHDTEAQTIIQRIIRDRINPNLFGYNFTRDEIKKAFEIYNEDIDKAHKTYASYNLPSVYALMLTNKDSVTRVYYGDLYREDGHYMAKKTPYFDAIDTLLRARIKYVAGGQDMEVKKVGNDGLLTSVRYGKGANNRTDLGTSETRTQGMGVIMTNNYDFRLGSNETVTMNMGRAHRNQLYRPLLLTTKDGIATYLNDSDVPKKLLKRTDWNGNLTFNANDVFGVENVQVSGYLGVWVPYGAKANQDARTQPSNRANSDGQVYKSSAALDSQVMYEAFSNFQAFADDQPELYMNRVLAKNTDLLKAWGITSVGLPPQYVSSKDGTFLDSTIDNGYAFDDRYDMALSQNNKYGSLEDLLNVLRALHKDGIQAIADWVPDQIYNLPGKEVVNATRVNGYGNHQVGYQIIDQAYVANTRTDGTDYQGKYGGAFLDELKAKYPSIFNRVQISNGKQLPTNEKITKWSAKYFNGTNILGRGINYVLRDDKTNQYFNTSANSQLLPTPLRDTGAITSTQVFQRRGQDVYFLRDNQAVKNEFVQDGNGNWYYFGGDGKMTKGAQNINNKDYYFFDNGIQLRNALRRASNGYTYYYGLDGAMVKNAFVDFDDKHKQ | – | 43.5 | 37.7
GTF4336T4: T4 C-terminal truncation of GTF4336, SEQ ID NO: 130, strain SG1318 (protein, T4 C-terminal truncation of GTF4336) INGKQYYVNSDGSVRKNFVFEQDGKSYYFDAETGALATKSQDEFSTEPIKATVDFSSGNQLYKNDDKSLDQLDTFITADAWYRPKSILKDGKTWTASTEADKRPLLMVWWPDKSTQVNYLNYMQNQGLGAGSFSTNSSQESLDQAAKAVQTKIEERIAREGNTNWLRTSIDQFIKTQPGWNSSTENSSYDHLQGGQLLFNNSKGDTGNRTSHANSDYRLLNRTPTNQTGTRKYFKDNSIGGLEFLLANDIDNSNPAVQAEQLNWLHFMMNIGSIMANDPTANFDGLRVDALDNVDADLLQIASDYFKAAYGVDKSEANAIKHLSYLEAWSANDPYYNKDTKGAQLPIDNALRNALTNLLMRDKNTRMQLGDMTAFINSSLNPRGANDKNGERMANYIFTRAHDTEAQTIIQRIIRDRINPNLFGYNFTRDEIKKAFEIYNEDIDKAHKTYASYNLPSVYALMLTNKDSVTRVYYGDLYREDGHYMAKKTPYFDAIDTLLRARIKYVAGGQDMEVKKVGNDGLLTSVRYGKGANNRTDLGTSETRTQGMGVIMTNNYDFRLGSNETVTMNMGRAHRNQLYRPLLLTTKDGIATYFNDSDVPKNLLKRTDWNGNLTFNANDVFGVENVQVSGYLGVWVPVGAKANQDARTQPSNRANSDGQVYKSSAALDSQVMYEAFSNFQAFADDQPELYMNRVLAKNTDLLKAWGVTSVGLPPQYVSSKDGTFLDSTIDNGYAFDDRYDMALSQNNKYGSLEDLLNVLRALHKDGIQAIADWVPDQIYNLPGKEVVNATRVNGYGYHQQGYQIVDQAYVANTRTDGTDYQGKYGGAFLDELKAKYPSIFNRVQISNGKQLPTNEKITKWSAKYFNGTNILGRGINYVLRDDKTNQYFNTSANSQLLPTPLRDTGAITSTQVFQRRGQDVYFLRDNQAVKNEFVQDGNGNWYYFGADGKMTKGAQTINKKDYYFFDNGIQLRNALRRANNGYTYYYGLDGAMVKNAFVDFDDKRK | – | 46.4 | –
GTF4336T5: T5 C-terminal truncation of GTF4336, SEQ ID NO: 120, strain SG1319 (protein, T5 C-terminal truncation of GTF4336) INGKQYYVNSDGSVRKNFVFEQDGKSYYFDAETGALATKSQDEFSTEPIKATVDFSSGNQLYKNDDKSLDQLDTFITADAWYRPKSILKDGKTWTASTEADKRPLLMVWWPDKSTQVNYLNYMQNQGLGAGSFSTNSSQESLDQAAKAVQTKIEERIAREGNTNWLRTSIDQFIKTQPGWNSSTENSSYDHLQGGQLLFNNSKGDTGNRTSHANSDYRLLNRTPTNQTGTRKYFKDNSIGGLEFLLANDIDNSNPAVQAEQLNWLHFMMNIGSIMANDPTANFDGLRVDALDNVDADLLQIASDYFKAAYGVDKSEANAIKHLSYLEAWSANDPYYNKDTKGAQLPIDNALRNALTNLLMRDKNTRMQLGDMTAFINSSLNPRGANDKNGERMANYIFTRAHDTEAQTIIQRIIRDRINPNLFGYNFTRDEIKKAFEIYNEDIDKAHKTYASYNLPSVYALMLTNKDSVTRVYYGDLYREDGHYMAKKTPYFDAIDTLLRARIKYVAGGQDMEVKKVGNDGLLTSVRYGKGANNRTDLGTSETRTQGMGVIMTNNYDFRLGSNETVTMNMGRAHRNQLYRPLLLTTKDGIATYFNDSDVPKNLLKRTDWNGNLTFNANDVFGVENVQVSGYLGVWVPVGAKANQDARTQPSNRANSDGQVYKSSAALDSQVMYEAFSNFQAFADDQPELYMNRVLAKNTDLLKAWGVTSVGLPPQYVSSKDGTFLDSTIDNGYAFDDRYDMALSQNNKYGSLEDLLNVLRALHKDGIQAIADWVPDQIYNLPGKEVVNATRVNGYGYHQQGYQIVDQAYVANTRTDGTDYQGKYGGAFLDELKAKYPSIFNRVQISNGKQLPTNEKITKWSAKYFNGTNILGRGINYVLRDDKTNQYFNTSANSQLLPTPLRDTGAITSTQVFQRRGQDVYFLRDNQAVKNEFVQDGNGNWYYFGADGKMTKGAQTINKKDYYFFDNGIQLRNALRRANNGYTYYYGLDGAMVKNAFVDFDDKRKQ | – | 43.6 | –
